From patent publication US5663064, “Ribozymes with RNA protein binding site” (University of Vermont)

B1: R17deltaA8 (ssRNA)
RNA: GAAACAUGGGAUCACCCAUGUUU
B2: R17bs (ssRNA)
RNA: GAAACAUGAGGAUCACCCAUGUUU

Legend:
R17 coat protein (R17cp) [1] = target: T1, R17 coat protein (R17cp) (bacteriophage R17, UniProt P69170 P69170:1-129); assay: filter; null mutant negative control; no specific complex in gel shift; settings: chain copies: 2; hairpin
Experimental: Association constants were determined by filter-binding assays (Carey et al., 1983 Biochemistry 22, 2601). Trace amount of labeled RNA (15–32 fmoles) was heat denatured and renatured in 500 μl of T.M.S buffer (40 mM Tris-HCl pH 8, 12 mM MgCl_2 and 2 mM spermidine) or TMK buffer (40 mM Tris-Acetate pH 8, 10 mM Mg.Acetate, 80 mM KCl). The reaction was initiated by adding R17 coat protein at various concentrations (0.01 nM to 1 μM). After at least 20 minutes of incubation at the desired temperature, 450 μl of the reaction mixture was filtered through pre-soaked nitrocellulose filter (Millipore-HAWP 024–0,45 μM). The amount of complex retained by the filter was determined by liquid scintillation counting. The amount of input RNA was determined by spotting a 20 μl aliquot of the reaction mixture on a filter. The fraction bound by the filter was plotted as a function of protein concentration. As previously described (Carey et al., supra; Schneider et al., 1992 J. Mol. Biol. 228, 862), the maximum amount of fraction complexed varied between 40 and 100% depending on the RNA preparation. Results were normalized to 100% of retention at saturation for purposes of calculations and to compare different experiments. […] Standard error was calculated from the fit of the observed curve to the theoretical one (reported by the sigmaplot software). […]

R17 coat protein (R17cp) [2] = target: T1, R17 coat protein (R17cp); assay: filter; also gel shift; TMS or TMK buffer, 25 or 37 C; Kd said to agree with earlier studies but value not given; settings: chain copies: 2; hairpin with bulged A
Experimental: The reaction was initiated by adding R17 coat protein at various concentrations (0.01 nM to 1 μM). After at least 20 minutes of incubation at the desired temperature, 450 μl of the reaction mixture was filtered through pre-soaked nitrocellulose filter (Millipore-HAWP 024–0,45 μM). The amount of complex retained by the filter was determined by liquid scintillation counting. The amount of input RNA was determined by spotting a 20 μl aliquot of the reaction mixture on a filter. The fraction bound by the filter was plotted as a function of protein concentration. As previously described (Carey et al., supra; Schneider et al., 1992 J. Mol. Biol. 228, 862), the maximum amount of fraction complexed varied between 40 and 100% depending on the RNA preparation. Results were normalized to 100% of retention at saturation for purposes of calculations and to compare different experiments. […] Dissociation constant (Kd) values were then obtained from a non-linear least-square fit using sigmaplot software (Jandel Scientific). Standard error was calculated from the fit of the observed curve to the theoretical one (reported by the sigmaplot software).
A filter binding assay (Carey, et al., 1983 Biochemistry 22, 2601) is used to confirm the results from gel-shift assay described above. Referring to FIG. 9, the R17cp binds to HpR17 as well as it binds to its genuine binding site (R17bs). […]

T1 sequence (P69170 whole entry, one chain of several): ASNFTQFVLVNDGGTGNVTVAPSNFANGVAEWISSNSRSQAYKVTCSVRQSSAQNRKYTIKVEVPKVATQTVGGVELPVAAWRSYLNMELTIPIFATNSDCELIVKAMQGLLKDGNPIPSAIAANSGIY

Row | Binder | binding result (R17 coat protein (R17cp) [1]) | binding result (R17 coat protein (R17cp) [2])
1 | B1 | no binding | 
2 | B2 |  | binds
